This is an account of results in US20110250133A1, “GASTRIN […] PEPTIDE COMPOUNDS” (priority 2003, published 2011).

Series [1] has as its target gastrin releasing peptide receptor (GRP-R) (human) (UniProt P30550). As to the kind of experiment: competition with 67Ga-AMBA on PC-3 cells, 4 C.
In series [2] the target is human neuromedin-B preferring receptor (NMB-R) (human) (UniProt P28336). As to the kind of experiment: competition with 125I-universal ligand, receptor autoradiography on human cancer tissue.
Series [3] addresses gastrin releasing peptide receptor (GRP-R) (human) (UniProt P30550). The description is as above.
For series [4] the target is unchanged. The series is described as follows: competition with 177Lu-AMBA on PC-3 cells, 4 C.
Series [5] has as its target human bombesin receptor subtype 3 (BB3-R) (human) (UniProt P32247). As to the kind of experiment: receptor autoradiography with 177Lu-L70.
For series [6], the target named is human neuromedin-B preferring receptor (NMB-R) (human) (UniProt P28336). As to the kind of experiment: receptor autoradiography with 177Lu-L70.
In series [7] the target is gastrin releasing peptide receptor (GRP-R) (human) (UniProt P30550). The series is described as follows: receptor autoradiography with 177Lu-L70.
A further series concerns the target mouse GRP-R (mouse) (UniProt P21729). As to the kind of experiment: receptor autoradiography with 177Lu-L70.
In series [8] the target is gastrin releasing peptide receptor (GRP-R) (human) (UniProt P30550). As to the kind of experiment: saturation binding on PC-3 cells.
Series [9] has as its system ZR-75-1 human breast cancer cells. As to the kind of experiment: Longterm (2-12 days) effect of 4-hydroxytamoxifen on GRP receptor binding in ZR-75-1 cells. In kind it is cell-based.
Procedure: The ZR-75-1 cells were seeded at 15K per well onto two 96-well scintiplates on the same day as 2 days study.
Series [10] relates to BT-474 human breast cancer cells. The series is described as follows: Effect of drug treatment on GRP receptor binding (177Lu-AMBA) in BT-474 cells. The note with it: BT-474; relative to untreated control; drug 0.1-1.0 μM (4-OH Tamoxifen 0.001-0.1 μM). In kind it is cell-based.
Procedure: BT-474 breast cancer cells (human primary invasive ductal carcinoma; ER+, PR+, amplified HER2/neu+) were obtained from the American Type Culture Collection. The growth medium for BT-474 cells is Hybri-care Medium (Cat No: 46X, ATCC) supplemented with 10% heat inactivated FBS (Hyclone, SH30070.03), 0.2% NaHCO3, and antibiotic/antimycotic “PSF-1×” (GibcoBRL, 15240-062) for a final concentration of penicillin-streptomycin (1×, 100 units/mL), and fungizone (0.25 μg/mL). […] Cells for binding experiments were plated on Day 0 at 5.6×10^4 cells/cm^2 in 96-well white/clear bottom microtiter plates (Falcon Optilux-I), or 96 well black/clear collagen I cellware plates (Beckton Dickinson Biocoat).
(§1) RPMI 1640 supplemented with 20 mM HEPES, 0.1% BSA (w/v), 0.5 mM PMSF (AEBSF), bacitracin (50 mg/500 ml), pH 7.4.
(§2) Incubations were stopped by the addition of 200 μL of ice-cold binding buffer. Plates were washed three more times with binding buffer, 140 μL of scintillation fluid was added to each well, the plates were sealed and analyzed on a Microβ plate reader (Microbeta Trilux, Perkin-Elmer).
Treatment: BT-474 cells were plated on Day 0 and treated on Days 1 and 2 (DT1, DT2).
For series [11], the system named is T47D human breast cancer cells. As to the kind of experiment: Effect of drug treatment on GRP receptor binding (177Lu-AMBA) in T47D cells. In kind it is cell-based. The note with it: T-47D; relative to untreated control; drug 0.1-1.0 μM (4-OH Tamoxifen 0.001-0.1 μM). From the text: T-47D breast cancer cells (human metastatic mammary gland ductal adenocarcinoma isolated from pleural effusion, ER+, PR+) were obtained from the American Type Culture Collection.

Series [12] relates to PC-3 prostate cancer cells. As to the kind of experiment: Effect of drug treatment on GRP receptor binding (177Lu-AMBA) in PC-3 cells. It counts as cell-based, human. The note with it: PC-3; drug 0.1-1.0 μM (4-OH Tamoxifen 0.001-0.1 μM).
Procedure: as §1, §2
PC-3 (human prostate adenocarcinoma, bone metastasis, AR-, ER) were obtained from the American Type Culture Collection. The growth medium for PC-3 cells is RPMI 1640 (10-041-CM, Mediatech, Inc), supplemented with 10% heat inactivated FBS (Hyclone, SH30070.03) and PSF-1× (as in Example LXVI). The binding buffer, lapatinib solutions, treatment method and cell binding assay is the same as in Example LXVI.
Series [13] concerns ZR-75-1 human breast cancer cells. As to the kind of experiment: Effect of 4-hydroxytamoxifen on GRP receptor binding and glucose uptake in ZR-75-1 cells. In kind it is cell-based.
Procedure: Method: ZR-75-1 breast cancer cell line (human ductal carcinoma with estrogen receptor) was obtained from the American Type Culture Collection (ATCC).
ZR-75-1 cells were plated on Day 0 (40 k/well 96-well PE Scintiplate). […] To determine the cell numbers and the proliferation, 100 uL of 10% CCK—F solution in DPBS (Molecular technologies) was added to the same plate, incubated for 30 min at 37° C. and the relative fluorescence (RFU) measured at 535 nm. Based on the cell numbers and the ^177Lu-binding, the Bmax (fmoles bound/million cells) was calculated.
The cell numbers were determined with CCK—F treatment as described above.
The subject of series [14] is human PC-3 nude mouse model. It counts as in vivo. The procedure:
For biodistribution studies, the radiolabeled compounds were prepared as described above except that a 1:1 molar ratio of ligand to Lutetium was used to guarantee complete chelation of all starting ligand. The HPLC peak containing the resulting ^177Lu complex was collected in 1 mL of 9:1 Bacteriostatic saline/ASCOR L500® solution containing 0.1% HSA, and the organic solvents were removed using a speed-vacuum device. The remaining solution was further diluted to the required radioconcentration using Bacteriostatic saline/ASCOR L500® Ascorbic Acid Injection USP mixed in a 9 to 1 [v/v]) ratio. The radiochemical purity of all samples was […].
10-50 μCi of the HPLC purified compounds were administered to each mouse by i.v. tail vein injection, n=4 per group. […] Radioactivity was assayed in a gamma counter. The data was expressed as percentage of the total administered radioactivity (% ID) for the urine combined with the bladder, as well as for the blood pool; and percentage of the total administered radioactivity per gram (% ID/g) for all the other tested organs.

For series [15] the following is noted: breast cancer patients; cited from earlier work.
The mark [16] stands for this setting: ZR-75-1, long-term treatment, 100 nM.

Chain of gastrin releasing peptide receptor (GRP-R) (human) (P30550 whole entry): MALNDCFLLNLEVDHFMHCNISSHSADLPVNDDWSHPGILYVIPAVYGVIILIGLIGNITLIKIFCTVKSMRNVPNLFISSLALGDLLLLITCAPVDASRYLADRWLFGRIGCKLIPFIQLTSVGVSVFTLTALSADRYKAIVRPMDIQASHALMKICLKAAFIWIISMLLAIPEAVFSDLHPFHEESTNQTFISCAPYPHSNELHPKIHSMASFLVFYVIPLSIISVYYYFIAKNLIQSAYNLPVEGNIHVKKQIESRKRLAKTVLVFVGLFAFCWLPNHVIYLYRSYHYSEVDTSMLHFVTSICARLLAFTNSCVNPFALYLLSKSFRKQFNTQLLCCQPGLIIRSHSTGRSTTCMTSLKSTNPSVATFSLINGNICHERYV
Chain of human neuromedin-B preferring receptor (NMB-R) (human) (P28336 whole entry): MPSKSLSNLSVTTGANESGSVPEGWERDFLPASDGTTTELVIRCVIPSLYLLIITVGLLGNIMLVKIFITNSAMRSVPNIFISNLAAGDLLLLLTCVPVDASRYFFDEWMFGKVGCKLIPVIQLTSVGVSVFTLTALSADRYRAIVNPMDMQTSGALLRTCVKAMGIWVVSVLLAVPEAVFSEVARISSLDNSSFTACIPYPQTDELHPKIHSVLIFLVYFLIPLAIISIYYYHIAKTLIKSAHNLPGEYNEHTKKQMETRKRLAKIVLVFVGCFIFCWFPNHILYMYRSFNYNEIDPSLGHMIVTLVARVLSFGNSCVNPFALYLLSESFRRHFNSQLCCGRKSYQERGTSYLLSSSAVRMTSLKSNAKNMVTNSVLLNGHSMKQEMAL
Chain of mouse GRP-R (mouse) (P21729 whole entry): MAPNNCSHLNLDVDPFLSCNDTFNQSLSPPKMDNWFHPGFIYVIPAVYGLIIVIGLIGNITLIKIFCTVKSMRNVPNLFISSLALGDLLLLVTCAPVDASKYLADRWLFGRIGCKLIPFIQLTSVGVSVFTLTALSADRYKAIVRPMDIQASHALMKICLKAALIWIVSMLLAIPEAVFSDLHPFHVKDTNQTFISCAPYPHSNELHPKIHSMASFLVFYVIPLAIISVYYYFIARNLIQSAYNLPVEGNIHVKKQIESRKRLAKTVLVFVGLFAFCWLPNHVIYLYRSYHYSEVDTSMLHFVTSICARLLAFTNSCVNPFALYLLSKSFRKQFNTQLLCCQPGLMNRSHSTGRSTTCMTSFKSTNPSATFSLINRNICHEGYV
Chain of human bombesin receptor subtype 3 (BB3-R) (human) (P32247 whole entry): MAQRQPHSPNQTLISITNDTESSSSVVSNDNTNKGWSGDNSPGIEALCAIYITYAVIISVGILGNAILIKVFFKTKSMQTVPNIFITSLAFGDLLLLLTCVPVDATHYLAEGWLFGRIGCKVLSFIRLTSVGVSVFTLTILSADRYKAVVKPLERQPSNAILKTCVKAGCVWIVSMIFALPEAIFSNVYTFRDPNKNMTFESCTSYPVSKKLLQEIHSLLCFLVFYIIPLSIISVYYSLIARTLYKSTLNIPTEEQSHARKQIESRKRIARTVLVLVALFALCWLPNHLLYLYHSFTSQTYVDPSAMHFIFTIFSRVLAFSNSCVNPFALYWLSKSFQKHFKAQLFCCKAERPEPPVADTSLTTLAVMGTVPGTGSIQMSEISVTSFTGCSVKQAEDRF

For the compound 175Lu-L70 (peptide), the figures for the EC50 in series [1] and in series [4] were 1.28 nM and 1.47 nM, respectively. The IC50 in series [2] was 0.9 nM; in series [3], 0.8 nM.
Compound 177Lu-L70 (peptide) showed a tissues labelled / tissues tested (of 6 (Bronchial carcinoid)) in series [5] of 0. In series [6], this compound registered a tissues labelled / tissues tested (of 8 (Ileal carcinoid)) of 8. Also, in series [7], the tissues labelled / tissues tested (of 4 (Prostate Ca)) is 4; the tissues labelled / tissues tested (of 5 (Chronic pancreatitis, acini)) is 5; the tissues labelled / tissues tested (of 6 (Bronchial carcinoid)) amounted to 2; the tissues labelled / tissues tested (of 6 (Renal Ca)) worked out at 5. In [7], this compound came in with a tissues labelled / tissues tested (of 7 (Colon Ca, smooth muscle)) of 7; a tissues labelled / tissues tested (of 7 (Colon Ca, tumor)) of 3; a tissues labelled / tissues tested (of 7 (Human pancreas, acini)) of 1; a tissues labelled / tissues tested (of 8 (Mammary Ca)) of 8. The compound further came in with a tissues labelled / tissues tested (of 4 (Mouse pancreas, acini)) in the series with mouse GRP-R (mouse) of 4. In addition, in [8], the Binding capacity (Bmax) (fmoles/1 × 10^6 cells) stood at 408, the dissociation constant (Kd) was 0.44 nM and the Receptors/cell (receptors/cell) came out at 245000.
With `CC/C(=C(\c1ccc(O)cc1)c1ccc(OCCN(C)C)cc1)c1ccccc1` [4-OH Tamoxifen, 4-hydroxytamoxifen], in series [9] (ZR-75-1, 100 nM, by 12 day), the inhibition of proliferation is 28%. In series [9] (setting [16]), the 2-NBDG uptake result was “smaller changes” and the 177Lu-AMBA uptake entry was “significant reduction”. Besides, the “decrease in 177Lu-AMBA binding (GRP receptor specific signal per cell)” value in series [10] was “up to 73%”. Besides, the “decrease in 177Lu-AMBA binding (GRP receptor specific signal per cell)” value in [11] is on record as “up to 35%”. Also, the “change in GRP receptor specific signal per cell (177Lu-AMBA binding)” value in series [12] is recorded as “no change”. Further, the “decrease in glycolysis (2-NBDG uptake)” value in series [13] (ZR-75-1) is about 20%. The “change in cell proliferation” value in [13] (ZR-75-1, 0-0.1 μM) is “little change”.
Turning to `CC1(N(CC(=O)O)CC(=O)O)CN(CC(=O)O)[C@@H]2CCCC[C@H]2N(CC(=O)O)C1` [XX100], in series [14] (177Lu complex, i.v., PC-3 nude mouse, 72 h), the “Blood % ID (7 d column, *72 h timepoint)” value amounted to 0.00 ± 0.00 % ID. For the same compound, in series [14] (Lu-177 complexes, human PC-3 nude mouse model, 1 h, 1 and 7 days), the “clearance and localization of radioactivity” value was “rapidly cleared from the body with little residual localization in any organs or tissue”.
On to Ga-AMBA (non-radioactive) (peptide), for which the half-maximal effective concentration (EC50) came to 1 nM in series [1] and 1.15 nM in series [4].
For the compound Herceptin®, the overall response in series [15] was 9%.

By EC50 is commonly meant the midpoint of the concentration-response curve. Higher therefore signals lower potency in that assay. One may read the IC50 as the concentration needed to halve the response being measured. In general, Kd refers to the concentration at which binding is half-saturated. Read a low Kd as a tighter complex.
